Reference: US20200123239A1 (PROTHENA BIOSCIENCES, published 2020)

T1: tau peptide fragment, residues 25-44 of SEQ ID NO: 1 (human)
T1 construct: Proteolytic fragment (LysC and trypsin digests) of rTau, precipitated with 16B5 and identified by MALDI-TOF/TOF
T1 peptide: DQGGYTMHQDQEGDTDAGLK

T2: tau peptide fragment, residues 24-44 of SEQ ID NO: 1 (human)
T2 construct: Proteolytic fragment (trypsin digest) of rTau, precipitated with 16B5 and identified by MALDI-TOF/TOF
T2 peptide: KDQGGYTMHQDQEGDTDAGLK


Key:
[1] = molecular target: T3, Δ23-32 deletion mutant of tau (rTau) (human, UniProt P10636 1-758); assay: Western blot of bacterial lysates, 16B5 at 0.2 µg/mL
T3 construct: Deletion mutagenesis of rTau; Tested as clarified bacterial lysate on Western blots; also called A23-32
Procedure: (§1) To control for sample loading, Tau46, an antibody with specificity for the C-terminal region of tau (C-terminal epitope), was used to stain duplicate blots. Both antibodies were used at a concentration of 0.2 μg/mL. Images were captured using a Licor Odyssey fluorescent scanner. The following deletion mutants of tau were made and analyzed in this manner: Δ5-24, Δ23-32, Δ25-44, Δ30-39, and Δ37-46.

[2] = molecular target: T4, Δ5-24 deletion mutant of tau (rTau) (human, UniProt P10636-6 1-383); assay: Western blot of bacterial lysate, stained with 16B5 at 0.2 ug/mL
T4 construct: Deletion mutagenesis of rTau; Tested as clarified bacterial lysate on Western blots; also called A5-24
Procedure: as §1

[3] = molecular target: T5, human tau with 4 microtubule binding repeats and no N-terminal inserts, containing a P301L mutation (rTau) (human, UniProt P10636 2-758); assay: as above
T5 construct: Expressed in E. coli and purified; also called full-length Tau; wild-type Tau (WT) on the blots
Procedure: as §1

[4] = molecular target: T1, tau peptide fragment, residues 25-44 of …; assay: precipitation of digest fragments with 16B5, HPLC, MALDI-TOF/TOF (LysC and trypsin digests)
Procedure: (§2) The human tau sequence with 4 microtubule binding repeats and no N-terminal inserts, and containing a P301L mutation (rTau), was expressed in E. coli and purified. […] Enzymatic digests of 200 ug of tau were carried out with one of four different proteases: trypsin (which cleaves at the carboxyl end of arginine and lysine), chymotrypsin (which primarily cleaves at the carboxyl end of tyrosine, tryptophan, phenylalanine and leucine), LysC (which cleaves at the carboxyl end of lysine), or GluC (which cleaves after glutamate residues and rarely after aspartate residues). All proteases were obtained from Thermo Scientific, and digests were performed for 16 h at 37° C. […] Precipitates were thoroughly washed in PBS containing 300 mM NaCl and 0.5% NP-40, then eluted with 1M NaCl in 100 mM glycine, pH 2.8. Eluates were dried under vacuum and resuspended in 0.1% trifluoroacetic acid (TFA). […] Peak fractions were collected, dried and resuspended in distilled water. Peptide masses and identities were determined by MALDI-TOF/TOF.

[5] = molecular target: T2, tau peptide fragment, residues 24-44 of …; assay: precipitation of digest fragments with 16B5, HPLC, MALDI-TOF/TOF (trypsin digest)
Procedure: as §2

[6] = molecular target: T6, Δ30-39 deletion mutant of tau (rTau) (human, UniProt P10636 1-758); assay: Western blot of bacterial lysates
T6 construct: Deletion mutagenesis of rTau; Tested as clarified bacterial lysate on Western blots; also called A30-39
Procedure: as §1

[7] = molecular target: T7, Δ25-44 deletion mutant of tau (rTau) (human, UniProt P10636 1-758); assay: Western blot of bacterial lysates
T7 construct: Deletion mutagenesis of rTau; Tested as clarified bacterial lysate on Western blots; also called A25-44
Procedure: as §1

[8] = molecular target: recombinant purified hTau-P301L (human) (UniProt P10636); assay: SPR (Biacore T200), antibody captured on anti-human or anti-mouse antibody, hTau-P301L as analyte
Sequence of recombinant purified hTau-P301L (human) (P10636 other isoform, or with tags, fused parts or gaps P301L P301L): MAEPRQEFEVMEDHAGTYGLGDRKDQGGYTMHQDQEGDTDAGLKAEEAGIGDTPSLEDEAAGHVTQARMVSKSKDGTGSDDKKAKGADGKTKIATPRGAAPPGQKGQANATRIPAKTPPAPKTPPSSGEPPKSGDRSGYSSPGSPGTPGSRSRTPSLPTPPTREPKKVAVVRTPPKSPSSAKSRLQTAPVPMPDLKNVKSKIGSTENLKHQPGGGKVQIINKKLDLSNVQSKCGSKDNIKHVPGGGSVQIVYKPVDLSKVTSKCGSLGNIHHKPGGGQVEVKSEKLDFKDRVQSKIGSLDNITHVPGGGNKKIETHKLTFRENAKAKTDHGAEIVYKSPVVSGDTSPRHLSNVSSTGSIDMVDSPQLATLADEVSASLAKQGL

T5 sequence (P10636 other isoform, or with tags, fused parts or gaps P301L P301L limits assumed): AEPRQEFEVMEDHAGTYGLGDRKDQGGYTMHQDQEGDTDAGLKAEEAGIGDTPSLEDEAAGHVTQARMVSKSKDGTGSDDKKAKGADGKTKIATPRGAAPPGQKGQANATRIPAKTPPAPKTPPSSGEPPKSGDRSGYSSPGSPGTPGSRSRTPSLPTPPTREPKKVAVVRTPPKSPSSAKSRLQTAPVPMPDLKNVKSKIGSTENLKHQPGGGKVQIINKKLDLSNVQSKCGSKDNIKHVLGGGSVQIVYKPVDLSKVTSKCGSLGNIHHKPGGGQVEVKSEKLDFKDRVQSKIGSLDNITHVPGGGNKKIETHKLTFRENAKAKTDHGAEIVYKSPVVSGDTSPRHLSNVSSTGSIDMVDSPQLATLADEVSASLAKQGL
T7 sequence (P10636 other isoform, or with tags, fused parts or gaps mutant): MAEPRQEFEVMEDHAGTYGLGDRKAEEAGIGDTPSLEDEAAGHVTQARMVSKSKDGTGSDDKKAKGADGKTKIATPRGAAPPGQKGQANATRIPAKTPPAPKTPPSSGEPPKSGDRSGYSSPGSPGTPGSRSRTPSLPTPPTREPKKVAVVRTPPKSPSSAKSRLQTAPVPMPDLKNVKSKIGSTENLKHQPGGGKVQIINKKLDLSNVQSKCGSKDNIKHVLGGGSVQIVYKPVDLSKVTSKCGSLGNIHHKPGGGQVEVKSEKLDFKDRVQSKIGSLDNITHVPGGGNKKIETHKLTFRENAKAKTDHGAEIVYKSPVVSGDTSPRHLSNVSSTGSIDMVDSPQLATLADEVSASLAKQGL
T4 sequence (P10636 other isoform, or with tags, fused parts or gaps mutant): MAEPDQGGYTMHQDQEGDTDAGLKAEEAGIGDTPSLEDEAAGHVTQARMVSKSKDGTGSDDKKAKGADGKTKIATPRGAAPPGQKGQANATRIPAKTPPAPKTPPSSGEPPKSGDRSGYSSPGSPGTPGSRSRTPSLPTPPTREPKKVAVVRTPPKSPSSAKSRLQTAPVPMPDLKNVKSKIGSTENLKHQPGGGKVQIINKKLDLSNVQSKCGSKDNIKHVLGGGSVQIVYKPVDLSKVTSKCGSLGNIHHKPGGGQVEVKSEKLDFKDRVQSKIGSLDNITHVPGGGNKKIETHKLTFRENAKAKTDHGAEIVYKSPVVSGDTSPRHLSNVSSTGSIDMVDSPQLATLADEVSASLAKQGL
T3 sequence (P10636 other isoform, or with tags, fused parts or gaps mutant): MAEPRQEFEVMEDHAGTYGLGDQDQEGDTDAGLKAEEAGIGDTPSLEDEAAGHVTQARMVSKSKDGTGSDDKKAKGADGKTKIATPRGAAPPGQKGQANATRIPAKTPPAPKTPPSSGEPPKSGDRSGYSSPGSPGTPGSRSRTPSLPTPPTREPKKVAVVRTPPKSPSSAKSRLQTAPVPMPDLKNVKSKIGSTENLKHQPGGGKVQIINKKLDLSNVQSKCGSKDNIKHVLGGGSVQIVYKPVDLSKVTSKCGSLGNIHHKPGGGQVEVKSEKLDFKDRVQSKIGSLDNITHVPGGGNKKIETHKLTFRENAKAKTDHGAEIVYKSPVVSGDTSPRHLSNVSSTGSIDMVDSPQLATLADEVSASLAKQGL
T6 sequence (P10636 other isoform, or with tags, fused parts or gaps mutant): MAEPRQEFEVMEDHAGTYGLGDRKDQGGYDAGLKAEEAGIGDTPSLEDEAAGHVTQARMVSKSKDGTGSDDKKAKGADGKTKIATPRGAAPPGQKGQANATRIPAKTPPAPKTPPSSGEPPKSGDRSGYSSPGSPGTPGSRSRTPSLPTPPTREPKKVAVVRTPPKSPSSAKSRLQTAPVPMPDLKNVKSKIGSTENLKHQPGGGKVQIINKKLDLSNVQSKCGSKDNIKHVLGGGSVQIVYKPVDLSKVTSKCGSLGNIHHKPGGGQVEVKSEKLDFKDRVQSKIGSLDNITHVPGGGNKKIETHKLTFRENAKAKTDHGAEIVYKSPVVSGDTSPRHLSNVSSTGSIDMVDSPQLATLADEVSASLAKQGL

Row | Binder | binding result [1] | binding result [2] | binding result [3] | binding result [4] | binding result [5] | binding result [6] | binding result [7] | Kd [8] [pM] | koff [8] [s⁻¹] | kon [8] [M⁻¹ s⁻¹]
1 | murine monoclonal anti-tau antibody 16B5 (antibody, V domains shown, Mouse monoclonal antibody; the isotype control used alongside it is IgG1; also called 16B5 monoclonal antibody; pan antibody 16B5) VH: QIQLVQSGPELKKPGETVKISCKASGYPFTYHGMDWVKQAPWGGLEWMGWINTYSGVPTYADDFKGRFAFSLETSVGTAYLQINNLKNEDTATYFCARRRDFTMDFWGQGTSVTVSS VL: NIVLSQSPSSLAVSPGEKVTMSCKSSQSLLNSRTRKNYLAWFQQKPGQSPKLLIYWASTRESGVPDRFTGSGSGTDFTLTISSVQAEDLAVYYCKQSYTLRTFGGGTNLEIKR | binds | binds | binds | binds | binds | no binding (tested: 0.2 µg/mL) | no binding (tested: 0.2 µg/mL) | – | – | –
2 | humanized 16B5 antibody, version H1L3 (antibody, V domains shown) VH: QVQLVQSGSELKKPGASVKVSCKASGYTFTYHGMDWVRQAPGQGLEWMGWINTYSGVPTYADDFKGRFVFSLDTSVSTAYLQISSLKAEDTAVYFCARRRDFTMDFWGQGTTVTVSS VL: DIVLTQSPDSLAVSLGERATINCKSSQSLLNSRTRKNYLAWFQQKPGQSPKLLIYWASTRESGVPDRFSGSGSGTDFTLTISSLQAEDVAVYYCKQSYTLRTFGGGTKVEIKR | – | – | – | – | – | – | – | 320 | 0.00398 | 1.25e+07

The remaining lines, values ahead:

Row | binding result [1] | binding result [2] | binding result [3] | binding result [4] | binding result [5] | binding result [6] | binding result [7] | Kd [8] [pM] | koff [8] [s⁻¹] | kon [8] [M⁻¹ s⁻¹] | Binder
3 | – | – | – | – | – | – | – | 617 | 0.00215 | 3.5e+06 | humanized 16B5 antibody, version H1L1 (antibody, V domains shown) VH: QVQLVQSGSELKKPGASVKVSCKASGYTFTYHGMDWVRQAPGQGLEWMGWINTYSGVPTYADDFKGRFVFSLDTSVSTAYLQISSLKAEDTAVYFCARRRDFTMDFWGQGTTVTVSS VL: NIVLTQSPDSLAVSLGERATINCKSSQSLLNSRTRKNYLAWFQQKPGQPPKLLIYWASTRESGVPDRFSGSGSGTDFTLTISSLQAEDVAVYYCKQSYTLRTFGGGTKVEIKR
4 | – | – | – | – | – | – | – | 286 | 0.00342 | 1.2e+07 | humanized 16B5 antibody, version H1L2 (antibody, V domains shown) VH: QVQLVQSGSELKKPGASVKVSCKASGYTFTYHGMDWVRQAPGQGLEWMGWINTYSGVPTYADDFKGRFVFSLDTSVSTAYLQISSLKAEDTAVYFCARRRDFTMDFWGQGTTVTVSS VL: NIVLTQSPDSLAVSLGERATINCKSSQSLLNSRTRKNYLAWFQQKPGQSPKLLIYWASTRESGVPDRFSGSGSGTDFTLTISSLQAEDVAVYYCKQSYTLRTFGGGTKVEIKR
